Laboratory results: patent US20230091653

Columns and labels:
[1] = test system: h00-37 (non-binding control antibody h00 conjugated with compound 37, mp-val-cit-PABC-MMAE)
[2] = test system: h00-5 (non-binding control antibody h00 conjugated with compound 5, mp-D-Leu-Ala-Glu-PABC-MMAE)
[3] = test system: h00-7 (non-binding control antibody h00 conjugated with compound 7, mp-Leu-Ala-Glu-PABC-MMAE)

## Cathepsin B
[1]
  percentage of drug cleaved from the heavy chain (3 h at 37 C, pH 4.5, QToF mass spectrometry): percentage of drug cleaved from the heavy chain of non-targeted ADCs 5 and 7 in vitro by Cathepsin B is similar to that found for non-targeted ADC 37
[2]
  percentage of drug cleaved from the heavy chain (3 h at 37 C, pH 4.5, QToF mass spectrometry): percentage of drug cleaved from the heavy chain of non-targeted ADCs 5 and 7 in vitro by Cathepsin B is similar to that found for non-targeted ADC 37
[3]
  percentage of drug cleaved from the heavy chain (3 h at 37 C, pH 4.5, QToF mass spectrometry): percentage of drug cleaved from the heavy chain of non-targeted ADCs 5 and 7 in vitro by Cathepsin B is similar to that found for non-targeted ADC 37

## neutrophil elastase
[1]
  percentage of drug cleaved from the heavy chain (3 h at 37 C, QToF mass spectrometry): percentage of drug cleaved from the heavy chain of non-targeted ADC 5 in vitro by neutrophil elastase is lower than that found for non-targeted ADC 37
[2]
  percentage of drug cleaved from the heavy chain (3 h at 37 C, QToF mass spectrometry): no proteolosis of h00-5 by neutrophil elastase was observed
[3]
  percentage of drug cleaved from the heavy chain (3 h at 37 C, QToF mass spectrometry): the h00-5 conjugate ... has its heavy chain cleaved by neutrophil elastase to a significantly lower extent than h00-7
